Measurements as given in WO2023190852A1 (dated 2023).

Legend:
[1] = biological target: spike protein (RBD region) derived from the South African mutant strain (BA.4 strain) (SARS-CoV-2)
[2] = biological target: RBD derived from the Omicron strain (BA.1 strain; B.1.1.529) (SARS-CoV-2)
[3] = biological target: RBD derived from the Omicron strain (BA.4 and BA.5 strains) (SARS-CoV-2)

B1: natural human IgG antibody (HIG001697) (antibody, V domains shown)
VH: EVQLVESGGGLVQPGGSLRLSCTASEIIVTRNYMTWVRQAPGKGLEWVAQIYPGGTTYYADSVKGRFTISRHNSMNTMYLQMNSLRTEDTAVYYCARSRGGVDDFWGQGTLVTVSS
VL: DIQMTQSPSSLSASVGDRVTITCQASQDINKFLNWYQQKPGHAPKLLIYDALNLEAGVPSRFSGSASGTYFTFTITSLQPEDIATYYCQQYDNIPPTYGGGTKVDIKR
B1 showed a Kd [1] of 0.282 nM, a Kd [2] of 1.33 nM and a Kd [3] of 9.96 nM.
